The values that follow come from the nanobody polyreactivity screen of Harvey et al. (2022).

The nature of the data set: yeast display, Sf9 membrane polyspecificity reagent, FACS + sequencing; frameworks hold sequencing errors. Put shortly:
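A synthetic nanobody library was expressed on Saccharomyces cerevisiae BJ5465 by galactose induction for 36–48 hours. The library was stained for 1 hour at 4 °C with 10% biotinylated, detergent-solubilized Sf9 membrane reagent and enriched with streptavidin microbeads before FACS. Low and high (top ~1%) gates were set on anti-HA fluorescence for expression and streptavidin fluorescence for reagent binding, and each polyreactivity label reflects the gate of origin.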
As for “QVQLVESGGGLVQAGGSLRLSCAASGNIFYTNAMGWYRQAPGKERELVAAISGSGGRTYYADSVKGRFTISRDNAKNTVYLQMNSLKPEDTAVYYCNAVRREYYDRTYGYWGQGTQVTVSS”, the “polyreactivity (PSR sort gate)” value is recorded as “low polyreactivity”.
The value for “QVQLVESGGGLVQAGGSLRLSCAASGNIFYVYAMGWYRQAPGKERELVAVISRNDGSTYYADSVKGRFTISRDNAKNTVYLQMNSLKPEDTAVYYCNAEWYFWGQGTQVTVSS” was “low polyreactivity”.
Next, “QVQLVESGGGLVQAGGSLRLSCAASGNIISTYAMGWYRQAPGKERELVAAITSSSARTYYADSVKGRFTISRDNAKNTVYLQLNSLKPEDTAVYYCATRTGIRQDLVHLYRVYYWGQGTQVTVSS”: “high polyreactivity”; “QVQLVESGGGLVQAGGSLRLSCAASGNILEYNAMGWYRQAPGKERELVAAISRGGITNYADSVKGRFTISRDNAKNTVYLQMNSLKPEDTAVYYCATRWIGYTSQWDHFEYDYWGQGTQVTVSS”: “low polyreactivity”; “QVQLVESGGGLVQAGGSLRLSCAASGNILEYNAMGWYRQAPGKEREMVAAISRGGITNYADSVKGRFTISRDNAKNTVYLQMNCLKPEDTAVYYCATRWIGYTSQWDHFEYDYWGQGTQVTVSS”: “low polyreactivity”.
The value for “QVQLVESGGGLVQAGGSLRLSCAASGNILIGNVMGWYRQAPGKERELVAAITSGGDTYYADSVKGRFTISRDNAKNTVYLQMNSLKPEDTAVYYCAADRPGQPKYEYWGQGTQVTVSS” was “low polyreactivity”; that for “QVQLVESGGGLVQAGGSLRLSCAASGNILLFNAMGWYRQAPGKERELVATINQSGGRTYYADSVKGRFTISRDNAKNTVYLQMNSLKPEDTAVYYCAATYVYWTWGYDYWGQGTLVTVSS” was “low polyreactivity”; that for “QVQLVESGGGLVQAGGSLRLSCAASGNILRGYAMGWYRQAPGKERELVAAINRGGGSTYYADSVKGRFTISRDNAKNTVYLQMNSLKPEDTAVYYCAARYPHRGYTFDYWGQGTQVTVSS” was “low polyreactivity”.
Regarding “QVQLVESGGGLVQAGGSLRLSCAASGNILRSYAMGWYRQAPGKERELVAAISADGSGTYYADSVKGRFTISRDNAKNTVYLQMNSLKPEDTAVYYCAAERYFWWYYDPENYWGQGTQVTVSS”, the “polyreactivity (PSR sort gate)” value is on record as “high polyreactivity”.
Next, “QVQLVESGGGLVQAGGSLRLSCAASGNIVDYYGMGWYIQAPGKERELVAAINVSGDSTYYADSVKGRFTISRDNAKNTVYLQMNSLKPEDTAVYYCAADYGWGSGFEYDYWGQGTQVTVSS”: “low polyreactivity”; “QVQLVESGGGLVQAGGSLRLSCAASGNNFYRNAMGWSRQAPGKERELVAAINSGSSTKYADSVKGRFTISRDNAKNTVYLQMNSLKPEDTAVYYCAKRRYTAIWYGYWGQGSQVTVSS”: “high polyreactivity”.
Consider “QVQLVESGGGLVQAGGSLRLSCAASGNNLLGYAMGWYRQAPGKEREWVAAISSSGGRTYYADSVKGRFTISRDNAKNTVYLQMNSLKPEDTAVYYCAAYTYSAGGYWGQGTQVTVSS”, for which the “polyreactivity (PSR sort gate)” value is “high polyreactivity”.
The value for “QVQLVESGGGLVQAGGSLRLSCAASGNTFAGNAKGCYRQAPGKERELVAAISRSGVTTRYADSVKGRFTISRDNAKNTVYLQMNSLKPEDTAVYYCNADPRLRQTRDYWGQGTQVTVSS” was “high polyreactivity”; that for “QVQLVESGGGLVQAGGSLRLSCAASGNTFAGNAMGWYRPAPGKERELVAAISRSGVTTRYADSVKGRVTISRDNAKHTVYLQMNSLKPEDTAVYYCNADPRLRQTRDYWGQGTQVTVSS” was “high polyreactivity”.
As to “QVQLVESGGGLVQAGGSLRLSCAASGNTFAGNAMGWYRQATGKERELVAAISWSGTRTYYADSVKGRFTISRDNAKNTVYLQMNSLKPEDTAVYYCAKLSTNKEYYWGQGTQVTVSS”, the “polyreactivity (PSR sort gate)” value is on record as “high polyreactivity”.
Next, “QVQLVESGGGLVQAGGSLRLSCAASGNTFAGYAMGWYRQAPGKEMEWVAAISTRGGITYYADSVKGRFTISRDNAKNTVYLQMNCLKPEDTAVYYCAAEFYYPWTYCSCDGRRVYYWGQGTQVTVSS”: “high polyreactivity”; “QVQLVESGGGLVQAGGSLRLSCAASGNTFAHYVMGWYRQAPGKERELVASITSGGSTNYADSVKGRFTISRDNAKNTVYLQMNSLKPEDTAVYYCAVSLSYWYEAFTTRIDYYYWGQGTQVTVSS”: “high polyreactivity”.
Consider “QVQLVESGGGLVQAGGSLRLSCAASGNTFANYAMGWYRQAPGKERELVAAITSNGGSTYYADSVKGRFTISRDNAKNTVYLQMNSLKPEDTAVYYCAADAAYYSGYDYWGQGTQVTVSS”, for which the “polyreactivity (PSR sort gate)” value is “low polyreactivity”.
The value for “QVQLVESGGGLVQAGGSLRLSCAASGNTFASYVMGWYRQAPGNERELVAAISWSGGSTYYADSVKGRFTISRDNAKNTVYLQMNSLKPEDTAVYYCNAKRNVRYGYWGQGTQVTVSS” was “high polyreactivity”.
The value for “QVQLVESGGGLVQAGGSLRLSCAASGNTFATYALGWYRQAPGKERELVAAITWSGGSTYYADSVKGRFTISRDNAKNTVYLQMNSLKPEDTAVYYCAADYLYYAIPAYYWDTGYDYWGQGTQVTVSS” was “low polyreactivity”; that for “QVQLVESGGGLVQAGGSLRLSCAASGNTFAVNAMGWYRQAPGKERELVAAISKRGGRTYYADSVKGRFTISRDNAKNTVYLQMNSLKPEDTAVYYCAADLSNSMDYWGQGTQVTVSS” was “high polyreactivity”; that for “QVQLVESGGGLVQAGGSLRLSCAASGNTFAYNVMGWYRQAPGKERELVAAISRSGGSTYYADSVKGRFTISRDNAKNTVYLQMNSLKPEDTAVYYCAAVVRRVRPEGSYNRWGHDYWGQGTQVTVSS” was “high polyreactivity”.
Next, “QVQLVESGGGLVQAGGSLRLSCAASGNTFDIYAMGWYRQAPGKERELVAAISRRGGSTYYADSVKGRFTISRDNAKNTVYLQMNSLKPEDTAVYYCNAKHKITHSSSDYWGQGTQVTVSS”: “high polyreactivity”; “QVQLVESGGGLVQAGGSLRLSCAASGNTFFKNAMGWYRQAPGKERELVAAISKRGGSTYYADSVKGRFTISRDNAKNTVYLQMNSLIPEDTAVYYCAADTFGVYASTYDYWGQGTQVTVSS”: “high polyreactivity”; “QVQLVESGGGLVQAGGSLRLSCAASGNTFFVYAMGWYRQAPGKERELVADINWSTGSTYYADFVKGRFTISRDNAKNTVYLQMNSLKPEDTAVYYCAAEAYYYVIFHGSWYTDDYWGQGTQVTVSS”: “low polyreactivity”.
In the case of “QVQLVESGGGLVQAGGSLRLSCAASGNTFGDNAMGWYRQAPGKERELVAAISTGGNTYYADSVKGRFTISRDNAKNTVYLQMNSLKPEDTAVYYCNAKWIPDTLFGIHETEGDYWGQGTQVTVSS”, the “polyreactivity (PSR sort gate)” value was “low polyreactivity”.
The value for “QVQLVESGGGLVQAGGSLRLSCAASGNTFGINAMGWYRQAPGKERELVASISFTGSSTYYADSVKGRFTISRDNAKNTVYLQMNSLKPEDTAVYYCNRDRITLYEYDYWGQGTQVTVSS” was “low polyreactivity”.
Turning to “QVQLVESGGGLVQAGGSLRLSCAASGNTFGLYAMGWYRQAPGKDRELVATITWSVSTYADSEKGRFTISRDNAKITVYLEMNSLKPEDTAVYFCAATTGPWYWRYVYWGQGTQVTVSS”, the “polyreactivity (PSR sort gate)” value is “high polyreactivity”.
Next, “QVQLVESGGGLVQAGGSLRLSCAASGNTFGNYGMGWYRQAPGKEREFVAAITSRGTSTYYADSVKGRFTISRDNAKYTVYLQMNSLKPEDTAVYYCNARPRYKYPRYDYWGQGTQVTVSS”: “high polyreactivity”; “QVQLVESGGGLVQAGGSLRLSCAASGNTFGQYTMGWYRQAPGKERELVAAISWDDSSTNYADSVKGRFTISRDNAKNTVYLQMNSLIPEDTAVYYCAKETELGTQYPYEYDYWGQGTQVTVSS”: “low polyreactivity”.
Next, “QVQLVESGGGLVQAGGSLRLSCAASGNTFGRYAMGWYRQAPGKERELVASIRGSSVRTFYADSVKGRFTISRDNAKNTVYLQMNSLKPEDTAVYYCAAEVYRYYATGYGYWGQGTQVTVSS”: “high polyreactivity”.
The value for “QVQLVESGGGLVQAGGSLRLSCAASGNTFGVYAMGWYRQAPGKERELVAAIRYRGGSTYYADSVKGRFTISRDKAKNTVYLQMTSLKPEETAVYYCAAVYYVQYVGRYYYWGQGTQVTVSS” was “high polyreactivity”.
As for “QVQLVESGGGLVQAGGSLRLSCAASGNTFHYYTMGWYRQAPGKERELVAAITRSAGRTYYADSVKGRFTISRDNAKTTVYLQMNSLKPEDTAVYYCATERERTMGYWGQGTQVTVSS”, the “polyreactivity (PSR sort gate)” value is recorded as “high polyreactivity”.
The value for “QVQLVESGGGLVQAGGSLRLSCAASGNTFLWYAMGWYRQAPGKEREFVAAIRRSGASTYYADSVKGRFTISRDNAKNTVYLQMNSLKPEDTAVYYCAAKFVYWSGAVYTRYDYWGQGTQVTVSS” was “high polyreactivity”.
Regarding “QVQLVESGGGLVQAGGSLRLSCAASGNTFLWYAMGWYRQAPGKERELGAAISRGGGSTYYADSVKGRFTISRDNAKNTVYLQMNSLKPEDTAVYYCAARTYYSARSIHYREFEYWGQGTQVTVSS”, the “polyreactivity (PSR sort gate)” value is on record as “high polyreactivity”.
Next, “QVQLVESGGGLVQAGGSLRLSCAASGNTFNNNAMGWYRQAPGKERELVAAISGSGGSTYYADSVKGRFTISRDNAKNTVYLQMNSLKPEDTAVYYCAVRLVHGGKRYGYWGQGTQVTVSS”: “high polyreactivity”; “QVQLVESGGGLVQAGGSLRLSCAASGNTFNPNAMGWYRQAPGKERELVAVIRFRGGSTYYADSVKGRFTISRDNAKNTVYLQMNSLKPEDTAVYYCAADFLYYYLRYYYWGQGTQVTVSS”: “high polyreactivity”; “QVQLVESGGGLVQAGGSLRLSCAASGNTFQSYAMGRYRQAPGKEREFVAAIRQSGGSTYYADSVKGRFTISRDTAKYTVYLQMNSLKPEATAVYYCAAYFTPRKYKPYDYWGLGTQVTVSS”: “high polyreactivity”.
Next, “QVQLVESGGGLVQAGGSLRLSCAASGNTFRNYAMGWYRQAPGKERELVAAISWTGARTYYADSVKGRFTISRDNAKNTVYLQMNSLKPEDTAVYYCARPLQWWSPSGTVDYGYWGQGTQVTVSS”: “high polyreactivity”; “QVQLVESGGGLVQAGGSLRLSCAASGNTFSAYAMGWYRQAPGKERELVAAISSRGGSTYYADSVKGRFTISRDNAKNTVYLQMNSLKPEDTAVYYCAAGYRGVANRKWIYYYWGQGTQVTVSS”: “high polyreactivity”.
